Experimental data: the Immune Epitope Database (IEDB)
pKd: −log10 of the molar value.

Experiments:
Conditions in all cases: source organism: Rickettsia akari str. Hartford
HLA-C*15:02 = assay: IEDB peptide-MHC binding, purified MHC/direct/fluorescence; filed as Kd, often an IC50 or EC50 that approximates it; ≥ and ≤ were set here for values at or beyond the usual limits of such assays
HLA-A*03:01 = assay: IEDB peptide-MHC binding, purified MHC/competitive/fluorescence; filed as Kd, often an IC50 or EC50 that approximates it; ≥ and ≤ were set here for values at or beyond the usual limits of such assays
HLA-B*07:02 = assay: as above
HLA-B*14:02 = assay: as above
HLA-A*11:01 = assay: as above
HLA-B*18:01 = assay: as above
HLA-B*08:01 = assay: as above
HLA-A*69:01 = assay: as above
HLA-B*58:01 = assay: as above
HLA-B*15:17 = assay: as above

## FTARIIIFS
HLA-C*15:02
  pKd: ≤ 4.70
HLA-A*03:01
  pKd: ≤ 4.70
HLA-B*07:02
  pKd: ≤ 5.30
HLA-B*14:02
  pKd: ≤ 5.30
HLA-A*11:01
  pKd: ≤ 5.30
HLA-B*18:01
  pKd: ≤ 4.70
HLA-B*08:01
  pKd: ≤ 5.30
HLA-A*69:01
  pKd: ≤ 4.70
HLA-B*58:01
  pKd: ≤ 5.30
HLA-B*15:17
  pKd: ≤ 4.70
